Legend:
[1] = target: T1, mouse GPR37 (native, on peritoneal macrophages and in tissues of wild-type mice) (mouse, UniProt Q9QY42 27-600); assay: cell-based or functional assay
T1 sequence (looked up): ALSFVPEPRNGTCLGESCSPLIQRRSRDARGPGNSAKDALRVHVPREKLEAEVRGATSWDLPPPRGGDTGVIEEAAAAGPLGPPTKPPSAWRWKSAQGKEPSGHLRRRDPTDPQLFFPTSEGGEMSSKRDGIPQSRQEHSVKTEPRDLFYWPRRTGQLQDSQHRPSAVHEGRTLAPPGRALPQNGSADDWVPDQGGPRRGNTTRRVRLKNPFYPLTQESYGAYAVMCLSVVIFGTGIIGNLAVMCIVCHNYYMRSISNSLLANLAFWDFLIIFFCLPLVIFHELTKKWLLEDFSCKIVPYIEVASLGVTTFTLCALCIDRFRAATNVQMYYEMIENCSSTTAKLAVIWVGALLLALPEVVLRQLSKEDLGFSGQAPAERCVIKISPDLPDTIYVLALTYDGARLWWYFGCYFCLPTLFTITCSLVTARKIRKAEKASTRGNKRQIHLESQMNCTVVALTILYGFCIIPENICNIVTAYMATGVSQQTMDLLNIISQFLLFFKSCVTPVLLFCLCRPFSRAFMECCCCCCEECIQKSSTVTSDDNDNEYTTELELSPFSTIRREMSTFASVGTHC

[2] = target: T2, human GPR37 (hGPR37-V5, expressed in transfected HEK293 cells) (human, UniProt O15354 27-613); assay: cell-based or functional assay
T2 sequence: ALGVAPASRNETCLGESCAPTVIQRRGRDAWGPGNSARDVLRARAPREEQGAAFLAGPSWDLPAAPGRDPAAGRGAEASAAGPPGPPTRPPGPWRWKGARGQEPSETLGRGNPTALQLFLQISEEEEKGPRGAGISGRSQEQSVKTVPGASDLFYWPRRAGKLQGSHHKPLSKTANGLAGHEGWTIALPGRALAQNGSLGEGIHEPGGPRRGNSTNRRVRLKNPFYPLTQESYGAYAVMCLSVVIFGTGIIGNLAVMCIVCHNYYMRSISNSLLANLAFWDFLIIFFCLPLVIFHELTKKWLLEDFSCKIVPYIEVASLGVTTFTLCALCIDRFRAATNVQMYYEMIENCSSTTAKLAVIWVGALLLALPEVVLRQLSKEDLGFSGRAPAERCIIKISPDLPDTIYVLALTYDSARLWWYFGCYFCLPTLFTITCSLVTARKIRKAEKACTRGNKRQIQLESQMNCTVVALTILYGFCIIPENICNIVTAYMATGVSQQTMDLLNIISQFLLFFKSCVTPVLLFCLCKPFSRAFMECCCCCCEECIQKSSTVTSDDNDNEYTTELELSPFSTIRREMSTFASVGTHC

Binder: TALIDNNATEEILY [prosaposin-derived 14-mer peptide (TX14)]
- EC50 of iCa^2+ increase in mouse peritoneal macrophages (Fluo-4AM calcium imaging) [1]: 302 nM
- EC50 of iCa^2+ increase in HEK293 cells transfected with human GPR37 (Fura-2AM calcium imaging) [2]: 407 nM
